Experimental data published in article PMC11409006 (Computational and Structural Biotechnology Journal, 2024).

Columns and labels:
Conditions in all cases: both partners purified
[1] = biological target: T1, C-terminal domain of the Plasmodium falciparum circumsporozoite protein, PfCSP-Cext (Plasmodium falciparum; strain not …, UniProt Q7K740); assay: ITC; sdAbCSP1 (45 µM) titrated into the cell with PfCSP-C (4 µM); 20 mM Tris-HCl, 150 mM NaCl, pH 8.0; 25 °C; one set of sites model; triplicate
T1 construct: Plasmodium falciparum circumsporozoite protein, C-terminal domain (alpha-TSR) with unstructured N- and C-terminal extensions; the compactly folded PfCSP-C domain is aa39-100 of PfCSP-Cext; K42, K45, E46, L48, N49 of PfCSP-Cext equal K314, K317, E318, L320, N321 of PfCSP; numbers count on: the construct PfCSP-Cext; also called PfaCSP-Cext; PfCSP-C (as named in the ITC sections); source: …

[2] = biological target: T1, C-terminal domain of the Plasmodium …; assay: native MS; ITEM-TWO: nanoESI of the mixture (sdAbCSP1 : PfCSP-Cext = 1 : 3.4) in 200 mM ammonium acetate, pH 6.7; complex ions isolated and dissociated in the gas phase by stepwise raised collision cell voltage (2-120 V); apparent gas-phase constants; triplicate
[3] = biological target: T2, PfCSP-Cext (Plasmodium falciparum, UniProt Q7K740); assay: ITC; sdAbCSP1 (45 µM) titrated into the cell with PfCSP-C (4 µM); 25 °C; 20 mM Tris-HCl, 150 mM NaCl, pH 8.0; one set of sites model; triplicate
T2 construct: circumsporozoite protein (PfCSP) of Plasmodium falciparum, C-terminal domain with non-structured N- and C-terminal extensions; the compactly folded PfCSP-C domain is aa39-100; aa114-127 contain the His-tag; numbers count on: the PfCSP-Cext construct; also called C-terminal domain of the Plasmodium falciparum circumsporozoite protein; PfCSP-C (so called in the ITC methods and results); source: E. …
T2 sequence (Q7K740 310-374): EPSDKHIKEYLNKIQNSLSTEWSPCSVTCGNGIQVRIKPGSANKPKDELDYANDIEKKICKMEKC

T1 sequence (Q7K740 310-374): as above

B1: camelid single domain antibody sdAbCSP1 (VHH)
VHH: QVQLQESGGGLVQAGGSLRLSCAASGRTFSSYSMGWFRLVPGKEREFVARISSSGGNTYYADSVRGRFTISRDNAKNTVYLQMNSLKPEDTAVYYCAADLLQFGRSSRAADYDYWGQGTQVTVSS
notes: full length is aa1-144; CDR1 aa25-33, CDR2 aa52-57, HV4 aa74-77, CDR3 aa100-118; aa1-125 is the form without non-structured extensions; source: recombinantly expressed
Kd [1]: 0.5 nM | dH [1]: -8.34 kcal/mol | KD m0g# (apparent quasi equilibrium constant of gas-phase complex dissociation) [2]: 3.7e-12 s⁻¹ | dH m0g# (apparent enthalpy of gas-phase complex dissociation) [2]: 12 kcal/mol | kD m0g# (apparent rate constant of gas-phase complex dissociation) [2]: 1e+10 Ø (unitless number)

B2: sdAbCSP1 (VHH)
VHH: B1 VHH
notes: 144 residues (aa1-144); CDR1 aa25-33, CDR2 aa52-57, HV4 aa74-77, CDR3 aa100-118; aa106-108 are SSR; aa1-125 are the folded domain; also called camelid single domain antibody sdAbCSP1; pQ-sdAbCSP1 (form with N-terminal pyro-glutamine); source: recombinantly expressed
stoichiometry N [3]: 0.9 ± 0.12
